Measurements from PMC7835342.

How the values were obtained:
HxlR-WT [1] = target: T1, HxlR-WT (Bacillus subtilis 168, UniProt P42406 1-120); assay: X-ray crystallography (2.9 A); 1 mM FA-treated protein; Cys11-CH2-Lys13 methylene bridge; 50 mM MgCl2 in crystallization; EMSA: protein preincubated +/- FA (1 mM in Methods, 0.6 mM in legends) in 20 mM HEPES pH 7.5, 300 mM NaCl, 1-2 h, 37 C; then 50 nM dsDNA in 20 mM HEPES pH 7.0
HxlR-K13A = HxlR-K13A (Bacillus subtilis 168, UniProt P42406 1-120, K13A); assay: EMSA; no FA; higher basal binding than WT; EMSA: protein preincubated +/- FA (1 mM in Methods, 0.6 mM in legends) in 20 mM HEPES pH 7.5, 300 mM NaCl, 1-2 h, 37 C; then 50 nM dsDNA in 20 mM HEPES pH 7.0
HxlR-WT [2] = target: T1, HxlR-WT; assay: EMSA; FA-treated (0.6 mM FA in text/legend; 1 mM in Methods); DNA binding enhanced; EMSA: protein preincubated +/- FA (1 mM in Methods, 0.6 mM in legends) in 20 mM HEPES pH 7.5, 300 mM NaCl, 1-2 h, 37 C; then 50 nM dsDNA in 20 mM HEPES pH 7.0

| Binder | binding result (HxlR-WT [1]) | binding result (HxlR-K13A) | binding result (HxlR-WT [2]) |
| --- | --- | --- | --- |
| 20 bp palindromic crystallization DNA (dsDNA) DNA 1: CAGTATCCTCGAGGATACTG DNA 2: CAGTATCCTCGAGGATACTG | binds | – | – |
| BRH (hxlAB promoter EMSA probe) (dsDNA) DNA 1: CCTCACAGTATCCTCCAAGTAACTTGTTGACTTCAAAGTGCCTACTTCTC DNA 2: GAGAAGTAGGCACTTTGAAGTCAACAAGTTACTTGGAGGATACTGTGAGG | – | binds | binds |
